How the values were obtained:
[1] = target: T1, human IL-33 (R&D systems) (human, UniProt O95760 112-270); assay: ELISA on coated human IL-33 (2 ug/mL), goat anti-human F(ab')2-HRP [panel 'Binding affinity to human IL-33']
T1 sequence (looked up): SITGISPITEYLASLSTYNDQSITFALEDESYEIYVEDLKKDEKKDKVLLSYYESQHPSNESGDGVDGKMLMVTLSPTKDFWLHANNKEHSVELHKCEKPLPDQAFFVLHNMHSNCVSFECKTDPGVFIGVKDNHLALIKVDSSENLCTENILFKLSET

[2] = target: T2, human IL-17RB protein (recombinant, R&D systems) (human); assay: ELISA, coated receptor; SM17 at 0.0032 µg/mL; well 1
T2 construct: Bought protein; also called hIL17RB
T2 sequence (Q9NRM6 whole entry, looked up): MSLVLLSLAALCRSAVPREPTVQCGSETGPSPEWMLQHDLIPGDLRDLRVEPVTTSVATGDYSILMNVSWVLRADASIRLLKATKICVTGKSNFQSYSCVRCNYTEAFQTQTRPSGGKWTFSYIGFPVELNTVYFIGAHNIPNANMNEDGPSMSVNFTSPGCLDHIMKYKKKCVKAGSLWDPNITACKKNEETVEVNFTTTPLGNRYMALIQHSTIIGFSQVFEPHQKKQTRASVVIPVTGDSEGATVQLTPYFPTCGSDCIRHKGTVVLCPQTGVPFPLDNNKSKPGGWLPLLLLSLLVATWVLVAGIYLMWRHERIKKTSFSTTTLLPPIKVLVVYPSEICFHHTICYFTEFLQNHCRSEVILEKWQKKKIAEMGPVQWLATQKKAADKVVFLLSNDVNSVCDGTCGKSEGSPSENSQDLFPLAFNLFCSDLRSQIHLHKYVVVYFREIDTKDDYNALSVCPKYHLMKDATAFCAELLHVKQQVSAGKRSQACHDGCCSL

[3] = target: T3, human IL-17 receptor subunit E (human, UniProt Q8NFR9 24-454, limits assumed); assay: as above
T3 construct: also called hIL17RE
T3 sequence (looked up): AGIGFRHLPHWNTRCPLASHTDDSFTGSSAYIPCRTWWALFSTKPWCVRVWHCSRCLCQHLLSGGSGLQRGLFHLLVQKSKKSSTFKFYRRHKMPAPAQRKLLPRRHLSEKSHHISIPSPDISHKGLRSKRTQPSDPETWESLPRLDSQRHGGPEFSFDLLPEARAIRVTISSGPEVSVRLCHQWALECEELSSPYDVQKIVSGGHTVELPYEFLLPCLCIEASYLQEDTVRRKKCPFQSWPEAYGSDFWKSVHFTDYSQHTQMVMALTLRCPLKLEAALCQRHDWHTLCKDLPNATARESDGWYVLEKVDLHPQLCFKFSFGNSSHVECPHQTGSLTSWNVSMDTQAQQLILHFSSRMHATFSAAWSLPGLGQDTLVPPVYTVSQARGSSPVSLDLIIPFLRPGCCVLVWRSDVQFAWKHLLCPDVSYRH

[4] = target: T4, human IL-17 receptor subunit D (human, UniProt Q8NFM7 28-299, limits assumed); assay: ELISA, coated receptor; SM17 at 0.4 µg/mL; well 1
T4 construct: also called IL17RD; hIL 17RD
T4 sequence (looked up): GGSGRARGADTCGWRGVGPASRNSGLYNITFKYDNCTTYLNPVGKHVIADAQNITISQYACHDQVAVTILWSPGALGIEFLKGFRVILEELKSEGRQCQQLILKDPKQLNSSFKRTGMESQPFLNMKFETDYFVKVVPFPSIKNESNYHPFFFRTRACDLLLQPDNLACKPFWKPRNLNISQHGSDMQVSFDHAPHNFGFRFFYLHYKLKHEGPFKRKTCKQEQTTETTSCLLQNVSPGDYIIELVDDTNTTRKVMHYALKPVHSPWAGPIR

[5] = target: T2, human IL-17RB protein (recombinant, R&D …); assay: ELISA, coated receptor; SM17 at 0.4 µg/mL; well 1
[6] = target: T5, human IL-17 receptor subunit C (human, UniProt Q8NAC3-2 21-467, limits assumed); assay: ELISA, coated receptor; SM17 at 0.4 µg/mL; well 1
T5 construct: also called IL17RC; hIL17RC
T5 sequence (looked up): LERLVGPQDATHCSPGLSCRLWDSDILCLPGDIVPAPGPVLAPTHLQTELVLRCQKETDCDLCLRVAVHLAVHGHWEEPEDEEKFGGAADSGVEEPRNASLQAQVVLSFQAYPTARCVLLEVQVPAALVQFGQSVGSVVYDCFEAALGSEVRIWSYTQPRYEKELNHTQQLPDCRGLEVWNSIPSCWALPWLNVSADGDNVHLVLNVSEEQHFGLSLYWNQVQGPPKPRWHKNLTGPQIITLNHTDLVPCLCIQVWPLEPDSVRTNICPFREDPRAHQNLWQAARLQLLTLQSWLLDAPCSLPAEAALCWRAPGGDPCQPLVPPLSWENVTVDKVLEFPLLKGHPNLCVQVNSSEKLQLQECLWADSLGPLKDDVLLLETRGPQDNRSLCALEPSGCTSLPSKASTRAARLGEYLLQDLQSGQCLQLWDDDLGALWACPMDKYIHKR

[7] = target: T6, human IL-17 receptor subunit A (human, UniProt Q96F46 33-320); assay: ELISA, coated receptor; SM17 at 0.4 µg/mL; well 1
T6 construct: also called IL17RA; hIL17RA

[8] = target: T3, human IL-17 receptor subunit E; assay: ELISA, coated receptor; SM17 at 0.4 µg/mL; well 1
[9] = target: T4, human IL-17 receptor subunit D; assay: ELISA, coated receptor; SM17 at 0.08 µg/mL; well 2
[10] = target: T2, human IL-17RB protein (recombinant, R&D …); assay: ELISA, coated receptor; SM17 at 0.08 µg/mL; well 2
[11] = target: T5, human IL-17 receptor subunit C; assay: ELISA, coated receptor; SM17 at 0.08 µg/mL; well 2
[12] = target: T6, human IL-17 receptor subunit A; assay: ELISA, coated receptor; SM17 at 0.08 µg/mL; well 2
[13] = target: T3, human IL-17 receptor subunit E; assay: ELISA, coated receptor; SM17 at 0.08 µg/mL; well 2

B1: SM17 (antibody, human IgG4 S228P, kappa, V domains shown)
VH: QVQLVQSGAEVKKPGASVKVSCKASGYTFISYWMNWVRQAPGQGLEWMGRIDPYDSEIQYNQKFKDRVTMTRDTSISTAYMELSRLRSDDTAVYYCARSGGFDWFAYWGQGTLVTVSS
VL: DIQMTQSPSSLSASVGDRVTITCRASENINSNLAWYQQKPGKAPKLLLYDVTNLADGVPSRFSGSGSGTDYTLTISSLQPEDFATYYCQHFWGPPYTFGGGTKVEIKR
notes: other paragraphs and claim 15 call the same entries VH and VL; also called humanized anti-IL17RB monoclonal antibody
binding result [1]: no binding
OD 450 nm Absorption [2]: 0.16 OD450
OD 450 nm Absorption [3]: -0.01 OD450
OD 450 nm Absorption [4]: 0.22 OD450
OD 450 nm Absorption [5]: 1.26 OD450
OD 450 nm Absorption [6]: 0.25 OD450
OD 450 nm Absorption [7]: 0.21 OD450
OD 450 nm Absorption [8]: 0.08 OD450
OD 450 nm Absorption [9]: 0.01 OD450
OD 450 nm Absorption [10]: 0.64 OD450
OD 450 nm Absorption [11]: -0.02 OD450
OD 450 nm Absorption [12]: 0.06 OD450
OD 450 nm Absorption [13]: 0 OD450

— patent publication US20240409647A1 (SINOMAB BIOSCIENCE, published 2024)
